The text below walks through data of US20210115124A1 (Genentech, published 2021).

For this experiment, the target named is T1, human VEGF (hVEGF) (human, UniProt P15692 181-395).
T1 construct: also called VEGF-A
T1 sequence: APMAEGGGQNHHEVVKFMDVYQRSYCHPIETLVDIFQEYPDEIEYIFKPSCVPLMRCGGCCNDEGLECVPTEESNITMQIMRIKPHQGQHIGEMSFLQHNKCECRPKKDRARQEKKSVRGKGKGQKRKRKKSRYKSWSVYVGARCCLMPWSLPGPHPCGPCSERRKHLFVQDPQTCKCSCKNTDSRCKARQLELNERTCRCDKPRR
The experiment in a line: SPR single-cycle.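 Further: fab variants injected over hVEGF immobilized on a CM5 chip (Biacore T200), threefold dilution series from 0.02 to 50 nM, kinetics fitted with a 1:1 Langmuir model.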

B1: G6.31 HC-A60E (Fab, name in Kabat numbering, V domains shown)
VH: EVQLVESGGGLVQPGGSLRLSCAASGFTISDYWIHWVRQAPGKGLEWVAGITPAGGYTYYEDSVKGRFTISADTSKNTAYLQMNSLRAEDTAVYYCARFVFFLPYAMDYWGQGTLVTVSS
VL: DIQMTQSPSSLSASVGDRVTITCRASQDVSTAVAWYQQKPGKAPKLLIYSASFLYSGVPSRFSGSGSGTDFTLTISSLQPEDFATYYCQQGYGNPFTFGQGTKVEIK
notes: Fab
For B1, the “Fold change (relative to G6.31)” value was found to be 1.6 fold, the equilibrium dissociation constant (Kd) came out at 1.08 nM, the koff turned out to be 0.000565 s⁻¹ and the on-rate constant (kon) was found to be 524000 M⁻¹ s⁻¹.

B2: G6.31 HC-K75E (Fab, name in Kabat numbering, V domains shown)
VH: EVQLVESGGGLVQPGGSLRLSCAASGFTISDYWIHWVRQAPGKGLEWVAGITPAGGYTYYADSVKGRFTISADTSENTAYLQMNSLRAEDTAVYYCARFVFFLPYAMDYWGQGTLVTVSS
VL: DIQMTQSPSSLSASVGDRVTITCRASQDVSTAVAWYQQKPGKAPKLLIYSASFLYSGVPSRFSGSGSGTDFTLTISSLQPEDFATYYCQQGYGNPFTFGQGTKVEIK
notes: Fab
Turning to B2, the “Fold change (relative to G6.31)” value was 0.8 fold, the dissociation constant Kd was 2.04 nM, the koff was 0.000444 s⁻¹ and the kon worked out at 217000 M⁻¹ s⁻¹.

B3: G6.31 HC-K43E (Fab, name in Kabat numbering, V domains shown)
VH: EVQLVESGGGLVQPGGSLRLSCAASGFTISDYWIHWVRQAPGEGLEWVAGITPAGGYTYYADSVKGRFTISADTSKNTAYLQMNSLRAEDTAVYYCARFVFFLPYAMDYWGQGTLVTVSS
VL: DIQMTQSPSSLSASVGDRVTITCRASQDVSTAVAWYQQKPGKAPKLLIYSASFLYSGVPSRFSGSGSGTDFTLTISSLQPEDFATYYCQQGYGNPFTFGQGTKVEIK
notes: Fab
For the molecule B3, the “Fold change (relative to G6.31)” value amounted to 1.3 fold, the Kd stood at 1.27 nM, the off-rate constant (koff) came out at 0.000482 s⁻¹ and the kon was 380000 M⁻¹ s⁻¹.

B4: G6.31 HC-K64E (Fab, name in Kabat numbering, V domains shown)
VH: EVQLVESGGGLVQPGGSLRLSCAASGFTISDYWIHWVRQAPGKGLEWVAGITPAGGYTYYADSVEGRFTISADTSKNTAYLQMNSLRAEDTAVYYCARFVFFLPYAMDYWGQGTLVTVSS
VL: DIQMTQSPSSLSASVGDRVTITCRASQDVSTAVAWYQQKPGKAPKLLIYSASFLYSGVPSRFSGSGSGTDFTLTISSLQPEDFATYYCQQGYGNPFTFGQGTKVEIK
notes: Fab
Turning to B4, the “Fold change (relative to G6.31)” value was 2.4 fold, binding was characterised by a dissociation constant (Kd) of 0.715 nM, the off-rate (koff) was determined as 0.000395 s⁻¹ and the kon is 552000 M⁻¹ s⁻¹.

B5: G6.31 HC-A71E (Fab, name in Kabat numbering, V domains shown)
VH: EVQLVESGGGLVQPGGSLRLSCAASGFTISDYWIHWVRQAPGKGLEWVAGITPAGGYTYYADSVKGRFTISEDTSKNTAYLQMNSLRAEDTAVYYCARFVFFLPYAMDYWGQGTLVTVSS
VL: DIQMTQSPSSLSASVGDRVTITCRASQDVSTAVAWYQQKPGKAPKLLIYSASFLYSGVPSRFSGSGSGTDFTLTISSLQPEDFATYYCQQGYGNPFTFGQGTKVEIK
notes: Fab
Turning to B5, the “Fold change (relative to G6.31)” value stood at 1.1 fold, the equilibrium dissociation constant (Kd) amounted to 1.48 nM, the off-rate (koff) worked out at 0.000379 s⁻¹ and the on-rate (kon) worked out at 257000 M⁻¹ s⁻¹.

B6: G6.31 HC-G65E (Fab, name in Kabat numbering, V domains shown)
VH: EVQLVESGGGLVQPGGSLRLSCAASGFTISDYWIHWVRQAPGKGLEWVAGITPAGGYTYYADSVKERFTISADTSKNTAYLQMNSLRAEDTAVYYCARFVFFLPYAMDYWGQGTLVTVSS
VL: DIQMTQSPSSLSASVGDRVTITCRASQDVSTAVAWYQQKPGKAPKLLIYSASFLYSGVPSRFSGSGSGTDFTLTISSLQPEDFATYYCQQGYGNPFTFGQGTKVEIK
notes: Fab
For B6, the “Fold change (relative to G6.31)” value amounted to 1.1 fold; the affinity, expressed as Kd, was 1.56 nM; the off-rate (koff) was determined as 0.000472 s⁻¹; the kon is 302000 M⁻¹ s⁻¹.

As a reminder, the Kd is the constant that tells how readily two partners part at equilibrium. What is called koff is the first-order rate constant of dissociation. Read a high koff as fast dissociation. The term kon denotes the rate constant with which the complex forms. Low values mean slower complex formation, high ones faster complex formation.
